Reference: US11077130

Key:
[1] = biological target: HIV-1 Env (strain and construct not stated); experiment: SPR; antibody-Env mixture flowed over immobilized HJ16 (competitor: immobilized HJ16)
[2] = biological target: B.RHPA Env T278A R456W (HIV-1); experiment: cell-based or functional assay
B.RHPA Env N276A (HIV-1) = experiment: cell-based or functional assay
B.RHPA Env T278A (HIV-1) = experiment: cell-based or functional assay
B.RHPA Env N160K (HIV-1) = experiment: cell-based or functional assay
B.6240 gp120 (HIV-1) = experiment: not stated (binding of B.6420 gp120 to mAbs)

| quantity not named (value printed after the antibody's name) (B.6240 gp120 (HIV-1)) [nM] | Substance | percent blocked [1] [%] | fold increase in IC50 (neutralization, mutant vs wild type) [2] [fold] | fold increase in IC50 (neutralization, mutant vs wild type) (B.RHPA Env N276A (HIV-1)) [fold] | fold increase in IC50 (neutralization, mutant vs wild type) (B.RHPA Env T278A (HIV-1)) [fold] | fold increase in IC50 (neutralization, mutant vs wild type) (B.RHPA Env N160K (HIV-1)) [fold] |
| --- | --- | --- | --- | --- | --- | --- |
| – | HJ16 (antibody) | 96 | > 1000 | > 10 | > 10 | 0.5 |
| 32.1 | PG9 (antibody) | – | – | – | – | – |
